The values below come from article PMC5658359, “A potent small-molecule inhibitor of the DCN1-UBC12 interaction that selectively blocks cullin 3 neddylation” (Nature Communications, 2017).

Primed or numbered codes have the meaning given here. Where no end group is shown, it is not given here. [ ]: non-standard residue; d: D form. Ala(benzothiazol-2-yl)′ = not defined here; Phe(2-Cl) = N[C@@H](Cc1ccccc1Cl)C(=O)O; 1Nal = N[C@@H](Cc1cccc2ccccc12)C(=O)O; 2Nal = N[C@@H](Cc1ccc2ccccc2c1)C(=O)O; hPhe = N[C@@H](CCc1ccccc1)C(=O)O

A word on the Ki: it is a dissociation constant, usually derived from enzyme kinetics or from competition with a known ligand.

In the assay the target is T1, human DCN1 (residues 58–259), N-terminal His6 tag (human, UniProt Q96GG9 58-259).
T1 construct: DCN1 (defective in cullin neddylation 1), human, residues 58-259, cloned into pDEST17; residues 60-251 are visible in PDB 5UFI; also called defective in cullin neddylation 1; source: Rosetta2 cells, purified (Ni-NTA, Superdex 75); not shown: His6, N-terminal, kept
T1 sequence (Q96GG9 58-259): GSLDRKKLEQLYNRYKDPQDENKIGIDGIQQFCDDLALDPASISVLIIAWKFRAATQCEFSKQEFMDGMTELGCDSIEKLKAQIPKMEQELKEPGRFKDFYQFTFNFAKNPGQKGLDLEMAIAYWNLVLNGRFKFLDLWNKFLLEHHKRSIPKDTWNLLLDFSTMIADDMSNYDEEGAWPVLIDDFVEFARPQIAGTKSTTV
The assay can be described thus: fluorescence polarisation; competitive: peptide added to pre-incubated DCN1 (50 nM) and FAM-labelled small-molecule probe 46 (5 nM); 100 mM phosphate buffer pH 6.5, 0.02% Tween-20, 2% DMSO; room temperature, 30 min; Ki calculated from IC50. Conditions: both partners purified.

Regarding [Ala(6-Cl-benzothiazol-2-yl)]IKL [compound 26 (24 with 6-Cl on the benzothiazol-2-yl)], the “fold more potent than 24” value is 4 fold. On to [Ala(benzothiazol-2-yl)′]IKL [compound 24 (11 with the phenyl replaced by benzothiazol-2-yl)], for which the Ki was 150 nM.

As for [Phe(2-Cl)]IKL [compound 13 (11 with Cl at the ortho position of the phenyl ring)], the “fold decrease in binding affinity (against 11)” value is 3 fold.

B1: UBC12 peptide 2 (peptide 1 without Lys12) (peptide, UniProt P61081 1-11, looked up)
peptide: MIKLFSLKQQK
notes: UBC12, N-terminal 11 residues (truncation of Lys12 from the 12-residue peptide); Terminal groups surmised Ac-...-NH2; source: synthetic peptide
Regarding B1, the binding result is “binds”.

B2: UBC12 peptide 4 (peptide, UniProt P61081 1-9, looked up)
peptide: MIKLFSLKQ
notes: Terminal groups surmised Ac-...-NH2; source: synthetic peptide
As for B2, the binding result is on record as “binds”. Turning to [Ala(5-Cl-benzothiazol-2-yl)]IKL [compound 25 (24 with 5-Cl on the benzothiazol-2-yl)], the “fold less potent than 24” value is 17 fold. Regarding [2Nal]IKL [compound 23 (11 with the phenyl replaced by naphthalen-2-yl)], the “fold more potent than 11” value was 11 fold.

B3: UBC12 peptide 3 (peptide, UniProt P61081 1-10, looked up)
peptide: MIKLFSLKQQ
notes: as for B2
For B3, the binding result is “binds”. Turning to [Ala(6-isopropyl-benzothiazol-2-yl)]IKL [compound 27 (26 with the 6-Cl replaced by an isopropyl group)], the Ki was 5 nM.

B4: UBC12 peptide 7 (peptide, UniProt P61081 1-6, looked up)
peptide: MIKLFS
notes: UBC12, N-terminal 6 residues (Met1 to Ser6; Leu7 removed from 6); Terminal groups surmised Ac-...-NH2; source: synthetic peptide
On to B4, for which the “fold loss in binding affinity (against 6)” value was 3 fold. Take [hPhe]IKL [compound 12 (tetrapeptide 9 with Met1 replaced by homophenylalanine)]: the “fold decrease in binding affinity (reference not named: 9 or 11)” value was 6 fold.

B5: UBC12 peptide 5 (peptide, UniProt P61081 1-8, looked up)
peptide: MIKLFSLK
notes: UBC12, N-terminal 8 residues (Met1 to Lys8); Terminal groups surmised Ac-...-NH2; source: synthetic peptide
With B5, the binding result is “binds”.

B6: UBC12 peptide 8 (peptide, UniProt P61081 1-5, looked up)
peptide: MIKLF
notes: UBC12, N-terminal 5 residues (Met1 to Phe5; Ser6 deleted from 7); Terminal groups surmised Ac-...-NH2; source: synthetic peptide
On to B6, for which the binding result was “binds”. Regarding [1Nal]IKL [compound 22 (11 with the phenyl replaced by naphthalen-1-yl)], the Ki is 354000 nM.

B7: UBC12 seven-residue peptide (6) (peptide, UniProt P61081 1-7, looked up)
peptide: MIKLFSL
notes: UBC12, N-terminal 7 residues (Met1 to Leu7; Lys8 removed from 5); Terminal groups surmised Ac-...-NH2; source: synthetic peptide
For B7, the “fold loss in binding affinity (against 5)” value is 3 fold.
